Experimental data reported in paper PMC3904261 (British Journal of Pharmacology, 2013).
Where “and” joins values, the source holds several entries; their conditions need not be identical. Equal values may be shown once. Values belong to the molecule of their own block, whether it stands above or below them. Bridge positions count the residues as written; N and C are the ends. Ends that are not written are not given here.

Experiments:
CGRP receptor [1] = target: T1, CGRP receptor (Homo sapiens, UniProt O60894+Q16602); experiment: β-arrestin 2 translocation in CHO-K1 cells (PathHunter eXpress); type: cell-based; design: host or cells: CHO-K1 (PathHunter eXpress β-arrestin kit); settings: for β-Arrestin (CHO-K1) Emax (% CGRP) CGRP analogue: 2 h stimulation, means ± SEM, n = 3; for reduction of Emax, β-arrestin 2 translocation: CHO-K1 cells, compared with CGRP
T1 sequence (Q16602 23-461): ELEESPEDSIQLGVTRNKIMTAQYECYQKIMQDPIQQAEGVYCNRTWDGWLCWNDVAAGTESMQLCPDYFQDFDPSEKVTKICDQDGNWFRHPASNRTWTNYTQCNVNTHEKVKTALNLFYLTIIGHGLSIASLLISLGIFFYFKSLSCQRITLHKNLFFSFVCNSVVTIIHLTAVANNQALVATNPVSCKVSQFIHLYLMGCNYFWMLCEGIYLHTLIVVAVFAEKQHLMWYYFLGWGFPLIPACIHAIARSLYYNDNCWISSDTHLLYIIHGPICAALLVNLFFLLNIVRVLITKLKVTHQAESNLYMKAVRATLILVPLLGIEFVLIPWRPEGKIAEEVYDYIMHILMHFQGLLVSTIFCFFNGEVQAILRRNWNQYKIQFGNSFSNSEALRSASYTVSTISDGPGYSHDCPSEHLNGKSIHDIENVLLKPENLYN
T1 sequence (O60894 27-148): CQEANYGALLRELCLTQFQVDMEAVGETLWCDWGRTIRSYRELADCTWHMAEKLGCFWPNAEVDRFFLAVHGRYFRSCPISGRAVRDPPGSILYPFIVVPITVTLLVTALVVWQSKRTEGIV
Method: GraphPad Prism 5.00 or 6.00 (GraphPad Software Inc., San Diego, CA, USA) was used for data fitting. Concentration–response curves were fitted to a sigmoidal function with Hill slope constrained to unity to obtain pEC50 and maximum responses (Emax) values. Displacement curves were analysed to obtain pIC50 values. Schild plots were fitted by linear regression to obtain slope and intercepts. pEC50 and pIC50 values were compared with that of human αCGRP using Dunnett's test with either a normal or repeated measures one-way ANOVA, as appropriate.

CGRP receptor [2] = target: T1, CGRP receptor; experiment: cAMP production in SK-N-MC cells; type: cell-based; design: relative expression levels of the receptors (endogenous vs. overexpressed); endogenous in cells; host or cells: SK-N-MC cells (ECACC clone; ATCC clone for [Cys5]-CGRP); settings: for cAMP (SK-N-MC) Emax (% CGRP) CGRP analogue: radioreceptor assay, approx. 10 min, means ± SEM, n = 3–6
Method: (§1) Production of cAMP in SK-N-MC cells for all analogues except [[…]]-hαCGRP was by a radioreceptor assay, as described previously (Poyner et al., [1998]). […] For [[…]]-hαCGRP, a different clone of SK-N-MC cells was used and cAMP production was measured via AlphaScreen (Perkin Elmer, Wellesley, MA, USA), as described previously ([…] et al., [2010]). This assay was also used to investigate the action of all derivatives at the AMY1(a) receptor and other experiments using Cos 7 cells. […] GraphPad Prism 5.00 or 6.00 (GraphPad Software Inc., San Diego, CA, USA) was used for data fitting. Concentration-response curves were fitted to a sigmoidal function with Hill slope constrained to unity to obtain pEC50 and maximum responses (Emax) values. Displacement curves were analysed to obtain pIC50 values. Schild plots were fitted by linear regression to obtain slope and intercepts. pEC50 and pIC50 values were compared with that of human αCGRP using Dunnett's test with either a normal or repeated measures one-way ANOVA, as appropriate.

AMY1(a) receptor = target: T2, AMY1(a) receptor (Homo sapiens, UniProt O60894+P30988); experiment: cAMP production in Cos 7 cells via the AMY1(a) receptor; type: cell-based; settings: AlphaScreen, means ± SEM
T2 construct: HA; expressed in transfected cells; host or cells: Cos 7
T2 sequence (P30988 25-474): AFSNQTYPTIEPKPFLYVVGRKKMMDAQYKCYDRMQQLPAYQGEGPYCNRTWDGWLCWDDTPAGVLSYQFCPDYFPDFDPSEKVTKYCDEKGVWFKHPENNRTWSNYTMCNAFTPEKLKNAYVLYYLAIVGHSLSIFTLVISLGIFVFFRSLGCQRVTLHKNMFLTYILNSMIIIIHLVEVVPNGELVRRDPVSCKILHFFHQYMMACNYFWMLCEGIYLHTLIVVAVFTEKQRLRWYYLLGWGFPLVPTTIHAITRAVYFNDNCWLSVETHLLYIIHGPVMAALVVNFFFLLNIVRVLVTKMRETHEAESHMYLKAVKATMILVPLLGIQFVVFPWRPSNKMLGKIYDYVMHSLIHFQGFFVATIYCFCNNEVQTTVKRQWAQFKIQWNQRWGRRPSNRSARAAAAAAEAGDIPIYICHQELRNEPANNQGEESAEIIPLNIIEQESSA
T2 sequence (O60894 27-148): as the sequence (O60894 27-148) above
Method: as §1, with “SK-N-MC cells were grown in DMEM/F12 medium supplemented with 10% fetal calf serum as described previously (Poyner et al., [1998]). […] Production” for “Production”

[3] = target: T3, CGRP receptor (calcitonin receptor-like receptor in complex with receptor activity-modifying protein 1) (human (endogenous in SK-N-MC), UniProt Q16602 23-461; O60894 27-148); experiment: radioligand binding; displacement of ^125I-CGRP from SK-N-MC cell membranes by unlabelled peptides, microcentrifugation-based binding assay; [Cys^5]-CGRP and its control on another batch of SK-N-MC cells; settings: one partner purified
T3 sequence (Q16602 23-461, chain 1 of 2): as the sequence (Q16602 23-461) above
T3 sequence (O60894 27-148, chain 2 of 2): as the sequence (O60894 27-148) above

[4] = target: T3, CGRP receptor (calcitonin receptor-like …); experiment: cell-based or functional assay
[5] = target: AMY_(1(a)) receptor (human HA-tagged CT (a) receptor with human myc-tagged RAMP1) (human) (UniProt O60894)
AMY_(1(a)) receptor (human HA-tagged CT (a) receptor with human myc-tagged RAMP1) (human), sequence (O60894 whole entry, looked up): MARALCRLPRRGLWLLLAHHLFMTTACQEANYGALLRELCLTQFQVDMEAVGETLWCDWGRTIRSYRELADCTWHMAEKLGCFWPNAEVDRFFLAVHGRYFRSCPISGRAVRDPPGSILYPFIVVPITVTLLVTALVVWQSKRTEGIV

Molecule: CC(C)C[C@H](NC(=O)CNC(=O)[C@H](C)NC(=O)[C@H](CC(C)C)NC(=O)[C@H](CCCNC(=N)N)NC(=O)[C@H](Cc1c[nH]cn1)NC(=O)[C@@H](NC(=O)[C@@H](NC(=O)[C@@H]1CSSC[C@H](NC(=O)[C@H](C)N)C(=O)N[C@@H](CC(=O)O)C(=O)N[C@@H](C)C(=O)N[C@@H](C)C(=O)N[C@@H]([C@@H](C)O)C(=O)N1)C(C)C)[C@@H](C)O)C(=O)N[C@@H](CC(C)C)C(=O)N[C@@H](CO)C(=O)N[C@@H](CCCNC(=N)N)C(=O)N[C@@H](CO)C(=O)NCC(=O)NCC(=O)N[C@H](C(=O)N[C@H](C(=O)N[C@@H](CCCCN)C(=O)N[C@@H](CC(N)=O)C(=O)N[C@@H](CC(N)=O)C(=O)N[C@@H](Cc1ccccc1)C(=O)N[C@H](C(=O)N1CCC[C@H]1C(=O)N[C@H](C(=O)N[C@@H](CC(N)=O)C(=O)N[C@H](C(=O)NCC(=O)N[C@@H](CO)C(=O)N[C@@H](CCCCN)C(=O)N[C@@H](C)C(=O)N[C@@H](Cc1ccccc1)C(N)=O)C(C)C)[C@@H](C)O)C(C)C)C(C)C)C(C)C [[Ala^4]]
β-Arrestin (CHO-K1) Emax (% CGRP) CGRP analogue (CGRP receptor [1]): 73 ± 3 % CGRP
β-Arrestin (CHO-K1) Emax (% CGRP) CGRP analogue (CGRP receptor [1]; listed as [Ala^6]): 43 ± 2.0 % CGRP
β-Arrestin (CHO-K1) Emax (% CGRP) CGRP analogue (CGRP receptor [1]; listed as [Ala^8]): 81 ± 3 % CGRP
β-Arrestin (CHO-K1) Emax (% CGRP) CGRP analogue (CGRP receptor [1]; listed as [Ala^9]): 64 ± 3 % CGRP
reduction of Emax, β-arrestin 2 translocation (CGRP receptor [1]; listed as [Ala^6]-CGRP): ~60%
reduction of Emax, β-arrestin 2 translocation (CGRP receptor [1]; listed as [Ala^8]-CGRP): 20%
EC50 (CGRP receptor [2]; AlphaScreen, second SK-N-MC clone, n = 3–4, read-out: pEC50, cAMP, control experiments for cross-compatibility of the two SK-N-MC cell clones (converted)): 26.3 nM and 40.7 nM
cAMP (SK-N-MC) Emax (% CGRP) CGRP analogue (CGRP receptor [2]): 100 ± 11 % CGRP
cAMP (SK-N-MC) Emax (% CGRP) CGRP analogue (CGRP receptor [2]; listed as [Ala^6]): 72 ± 12 % CGRP
cAMP (SK-N-MC) Emax (% CGRP) CGRP analogue (CGRP receptor [2]; listed as [Ala^8]): 104 ± 8 % CGRP
cAMP (SK-N-MC) Emax (% CGRP) CGRP analogue (CGRP receptor [2]; listed as [Ala^9]): 103 ± 13 % CGRP
AMY1(a) receptor-stimulated cAMP Emax (% CGRP) CGRP analogue (AMY1(a) receptor; n = 3–6): 161 ± 45 % CGRP
AMY1(a) receptor-stimulated cAMP Emax (% CGRP) CGRP analogue (AMY1(a) receptor; n = 3–6, listed as [Ala^6]): 42 ± 11 % CGRP
AMY1(a) receptor-stimulated cAMP Emax (% CGRP) CGRP analogue (AMY1(a) receptor; n = 3–6, listed as [Ala^8]): 143 ± 11 % CGRP
AMY1(a) receptor-stimulated cAMP Emax (% CGRP) CGRP analogue (AMY1(a) receptor; n = 3–6, listed as [Ala^9]): 89 ± 9 % CGRP

B1: [Cys^6]-CGRP (peptide)
chain: ACDTACCVTHRLAGLLSRSGGVVKNNFVPTNVGSKAF-NH2
modifications: disulfide 2-7; also: Cys6 Acm protected, removal not given here
pKi [3]: 9.33

B2: [Cys^1]-CGRP (peptide)
chain: CCDTATCVTHRLAGLLSRSGGVVKNNFVPTNVGSKAF-NH2
modifications: disulfide 2-7; also: Cys1 Acm protected, removal not given here
pKi [3]: 9.55
Emax (% CGRP), cAMP production in SK-N-MC cells [4]: 71 % CGRP
Emax (% CGRP), β-arrestin 2 translocation in CHO-K1 cells expressing the human CGRP receptor [4]: 60 % CGRP
pEC50, cAMP production in SK-N-MC cells [4]: 7.7
pEC50, β-arrestin 2 translocation in CHO-K1 cells expressing the human CGRP receptor [4]: 8.58

B5: [Asp^6]-CGRP (peptide)
chain: ACDTADCVTHRLAGLLSRSGGVVKNNFVPTNVGSKAF-NH2
modifications: disulfide 2-7
pKi [3]: 7.5

Second part, the molecule after the results:

Emax (% CGRP), cAMP production in Cos 7 cells with the AMY (1(a)) receptor [5]: 89 % CGRP
pEC50, cAMP production in Cos 7 cells with the AMY (1(a)) receptor [5]: 8.21
Emax (% CGRP), cAMP production in SK-N-MC cells [4]: 103 % CGRP
Emax (% CGRP), β-arrestin 2 translocation in CHO-K1 cells expressing the human CGRP receptor [4]: 64 % CGRP
pEC50, cAMP production in SK-N-MC cells [4]: 7.3
pEC50, β-arrestin 2 translocation in CHO-K1 cells expressing the human CGRP receptor [4]: 8.23
B3: [Ala^9]-CGRP (peptide)
chain: ACDTATCVAHRLAGLLSRSGGVVKNNFVPTNVGSKAF-NH2
modifications: disulfide 2-7; N-terminus assumed
SMILES: CC(C)C[C@H](NC(=O)CNC(=O)[C@H](C)NC(=O)[C@H](CC(C)C)NC(=O)[C@H](CCCNC(=N)N)NC(=O)[C@H](Cc1c[nH]cn1)NC(=O)[C@H](C)NC(=O)[C@@H](NC(=O)[C@@H]1CSSC[C@H](NC(=O)[C@H](C)N)C(=O)N[C@@H](CC(=O)O)C(=O)N[C@@H]([C@@H](C)O)C(=O)N[C@@H](C)C(=O)N[C@@H]([C@@H](C)O)C(=O)N1)C(C)C)C(=O)N[C@@H](CC(C)C)C(=O)N[C@@H](CO)C(=O)N[C@@H](CCCNC(=N)N)C(=O)N[C@@H](CO)C(=O)NCC(=O)NCC(=O)N[C@H](C(=O)N[C@H](C(=O)N[C@@H](CCCCN)C(=O)N[C@@H](CC(N)=O)C(=O)N[C@@H](CC(N)=O)C(=O)N[C@@H](Cc1ccccc1)C(=O)N[C@H](C(=O)N1CCC[C@H]1C(=O)N[C@H](C(=O)N[C@@H](CC(N)=O)C(=O)N[C@H](C(=O)NCC(=O)N[C@@H](CO)C(=O)N[C@@H](CCCCN)C(=O)N[C@@H](C)C(=O)N[C@@H](Cc1ccccc1)C(N)=O)C(C)C)[C@@H](C)O)C(C)C)C(C)C)C(C)C

pKi [3]: 7.76
B4: [Lys^6]-CGRP (peptide)
chain: ACDTAKCVTHRLAGLLSRSGGVVKNNFVPTNVGSKAF-NH2
modifications: disulfide 2-7

Emax (% CGRP), cAMP production in Cos 7 cells with the AMY (1(a)) receptor [5]: 143 % CGRP
pEC50, cAMP production in Cos 7 cells with the AMY (1(a)) receptor [5]: 8.97
pKi [3]: 9.42
B6: [Ala^8]-CGRP (peptide)
chain: ACDTATCATHRLAGLLSRSGGVVKNNFVPTNVGSKAF-NH2
modifications: disulfide 2-7; N-terminus assumed
SMILES: CC(C)C[C@H](NC(=O)CNC(=O)[C@H](C)NC(=O)[C@H](CC(C)C)NC(=O)[C@H](CCCNC(=N)N)NC(=O)[C@H](Cc1c[nH]cn1)NC(=O)[C@@H](NC(=O)[C@H](C)NC(=O)[C@@H]1CSSC[C@H](NC(=O)[C@H](C)N)C(=O)N[C@@H](CC(=O)O)C(=O)N[C@@H]([C@@H](C)O)C(=O)N[C@@H](C)C(=O)N[C@@H]([C@@H](C)O)C(=O)N1)[C@@H](C)O)C(=O)N[C@@H](CC(C)C)C(=O)N[C@@H](CO)C(=O)N[C@@H](CCCNC(=N)N)C(=O)N[C@@H](CO)C(=O)NCC(=O)NCC(=O)N[C@H](C(=O)N[C@H](C(=O)N[C@@H](CCCCN)C(=O)N[C@@H](CC(N)=O)C(=O)N[C@@H](CC(N)=O)C(=O)N[C@@H](Cc1ccccc1)C(=O)N[C@H](C(=O)N1CCC[C@H]1C(=O)N[C@H](C(=O)N[C@@H](CC(N)=O)C(=O)N[C@H](C(=O)NCC(=O)N[C@@H](CO)C(=O)N[C@@H](CCCCN)C(=O)N[C@@H](C)C(=O)N[C@@H](Cc1ccccc1)C(N)=O)C(C)C)[C@@H](C)O)C(C)C)C(C)C)C(C)C
